From paper PMC4565748 (Molecular immunology, 2015) come the findings set out here.

For assay [1], the target named is T1, complement C3b, site-specifically biotinylated (human, UniProt P01024 23-667; P01024 749-1663, biotin, site-specific (site not given)). Briefly: SPR. A general note: Surface plasmon resonance follows binding to a sensor surface in real time, without labels.
In assay [2] the target is T1, complement C3b, site-specifically …. Briefly: SPR. The source holds these as a separate data set.
Assay [3] has the same target. In words: AlphaScreen or HTRF.

B1: staphylococcal complement inhibitor SCIN-A, full-length wild type (natural protein)
chain: STSLPTSNEYQNEKLANELKSLLDELNVNELATGSLNTYYKRTIKISGQKAMYALKSKDFKKMSEAKYQLQKIYNEIDEALKSKY
B1: in assay [1], the equilibrium dissociation constant (Kd) (as a rule, the constant that tells how readily two partners part at equilibrium) was 0.145 ± 0.056 µM. For the same molecule, in assay [2], binding was characterised by a dissociation constant (Kd) of 0.096 ± 0.016 µM; the off-rate (koff) (in general, the rate constant with which the complex falls apart) came to 0.051 s⁻¹; the association rate constant (kon) (as a rule, the rate constant with which the complex forms) came out at 550000 M⁻¹ s⁻¹.

B2: SCIN-A.R42A (natural protein)
chain: STSLPTSNEYQNEKLANELKSLLDELNVNELATGSLNTYYKATIKISGQKAMYALKSKDFKKMSEAKYQLQKIYNEIDEALKSKY
B2 yielded a Kd in assay [1] of 8.5 ± 0.12 µM. Moreover, in assay [3], the Kd turned out to be 14 µM. In addition, in assay [2], the dissociation constant (Kd) came out at 6.6 ± 0.62 µM, the koff was found to be 0.58 s⁻¹ and the kon was determined as 89000 M⁻¹ s⁻¹.

B3: SCIN-A.R42A.Q49A (natural protein)
chain: STSLPTSNEYQNEKLANELKSLLDELNVNELATGSLNTYYKATIKISGAKAMYALKSKDFKKMSEAKYQLQKIYNEIDEALKSKY
Regarding B3, the Kd in assay [1] turned out to be 15 µM; in assay [3] it was 14 µM.

B4: SCIN-A.Q49A (natural protein)
chain: STSLPTSNEYQNEKLANELKSLLDELNVNELATGSLNTYYKRTIKISGAKAMYALKSKDFKKMSEAKYQLQKIYNEIDEALKSKY
The molecule B4 registered an equilibrium dissociation constant (Kd) in assay [1] of 0.22 ± 0.098 µM. Moreover, in assay [3], the Kd was 0.12 µM. In assay [2], this molecule had a Kd of 0.069 ± 0.0083 µM, an off-rate constant (koff) of 0.051 s⁻¹ and a kon of 760000 M⁻¹ s⁻¹.
